How the values were obtained:
[1] = molecular target: T1, Truncated sigma^70 (C-terminal 99 amino acids) (Escherichia coli, UniProt P00579); test: Competitive ELISA for quantification of AsiA-sigma^70 interaction (GST-AsiA binding to immobilised truncated sigma^70); set-up: species or system E. coli
T1 construct: made in house; GST-AsiA from E. coli DH5alpha / pARC 8105
Experimental: A solution of the protein product (200 pmoles/ml) in a pH 7.5 buffer comprising Tris HCl (10 mM) and sodium chloride (50 mM) was prepared and 200 µl of solution were added per well of a nickel-coated microtitre plate, followed by incubation at room temperature for a period of two hours. The microtitre plate was then washed 5 times with the buffer solution and then incubated at 37°C for one hour with a solution of bovine serum albumin (3% w/v) in the above buffer. After washing 5 times with phosphate buffered saline (PBS) with "Tween" 20 (polyoxyethylene (20) sorbitan monolaurate, 0.5% v/v), the GST-AsiA fusion protein prepared as described in Example 4.1. above (100 ng) was added together with a defined amount of a putative inhibitor of truncated sigma^70 protein (corallopyronin, myxopyronin or ripostatin) and incubated at 37°C for one hour. Further washing (5 times) with PBS-"Tween" 20 was carried out and then anti-GST antibodies (1:2000) raised in rabbits were added to the wells, with incubation at 37°C for one hour. The previous washing step was repeated and thereafter anti-rabbit IgG-horse radish peroxidase (HRP) conjugate (1:2000) was added and incubated at 37°C for one hour. A final wash with PBS-"Tween" 20 was carried out, before adding the HRP enzyme substrate, tetramethyl benzidene/ H2O2. The enzymic reaction (resulting in the development of colour) was stopped after a suitable period of time by the addition of 6N H2SO4 and the microtitre plate was "read" in a spectrophotometer using light of wavelength (λ) 450 nm.

[2] = molecular target: Truncated sigma^70 (C-terminal 99 amino acids of E. coli sigma^70), (His)5-tagged (Escherichia coli) (UniProt P00579); test: competitive ELISA; His-tagged truncated sigma^70 on nickel plate, free AsiA 7 µg/ml competing with GST-AsiA 500 ng/ml; the value is the GST-AsiA binding that remains
Sequence of Truncated sigma^70 (C-terminal 99 amino acids of E. coli sigma^70), (His)5-tagged (Escherichia coli) (P00579 515-613): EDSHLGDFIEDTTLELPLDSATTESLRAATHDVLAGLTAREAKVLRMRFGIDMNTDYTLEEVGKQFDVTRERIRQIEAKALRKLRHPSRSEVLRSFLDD

[3] = molecular target: Salmonella typhimurium RNA polymerase sigma^70 subunit (Salmonella typhimurium) (UniProt P0A2E3); test: cell-based or functional assay
Sequence of Salmonella typhimurium RNA polymerase sigma^70 subunit (Salmonella typhimurium) (P0A2E3 whole entry): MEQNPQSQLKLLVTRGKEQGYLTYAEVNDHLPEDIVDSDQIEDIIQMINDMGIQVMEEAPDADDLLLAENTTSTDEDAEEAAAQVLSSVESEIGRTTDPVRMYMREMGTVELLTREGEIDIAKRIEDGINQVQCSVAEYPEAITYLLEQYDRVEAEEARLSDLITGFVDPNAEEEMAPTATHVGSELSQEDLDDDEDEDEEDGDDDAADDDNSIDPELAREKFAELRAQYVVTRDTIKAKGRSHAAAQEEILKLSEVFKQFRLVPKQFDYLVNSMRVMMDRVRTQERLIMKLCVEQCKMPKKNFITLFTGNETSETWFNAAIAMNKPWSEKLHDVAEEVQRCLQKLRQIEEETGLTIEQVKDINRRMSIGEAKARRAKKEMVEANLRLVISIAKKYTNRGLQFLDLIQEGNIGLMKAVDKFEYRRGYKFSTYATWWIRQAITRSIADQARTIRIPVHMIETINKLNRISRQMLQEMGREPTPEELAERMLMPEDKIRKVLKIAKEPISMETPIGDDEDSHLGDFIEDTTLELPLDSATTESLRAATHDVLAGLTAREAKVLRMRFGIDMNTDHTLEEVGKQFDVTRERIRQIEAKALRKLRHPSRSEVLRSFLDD

[4] = molecular target: E. coli RNA polymerase sigma^70 subunit (Escherichia coli) (UniProt P00579); test: cell-based or functional assay
Sequence of E. coli RNA polymerase sigma^70 subunit (Escherichia coli) (P00579 whole entry, the tested form may be a part): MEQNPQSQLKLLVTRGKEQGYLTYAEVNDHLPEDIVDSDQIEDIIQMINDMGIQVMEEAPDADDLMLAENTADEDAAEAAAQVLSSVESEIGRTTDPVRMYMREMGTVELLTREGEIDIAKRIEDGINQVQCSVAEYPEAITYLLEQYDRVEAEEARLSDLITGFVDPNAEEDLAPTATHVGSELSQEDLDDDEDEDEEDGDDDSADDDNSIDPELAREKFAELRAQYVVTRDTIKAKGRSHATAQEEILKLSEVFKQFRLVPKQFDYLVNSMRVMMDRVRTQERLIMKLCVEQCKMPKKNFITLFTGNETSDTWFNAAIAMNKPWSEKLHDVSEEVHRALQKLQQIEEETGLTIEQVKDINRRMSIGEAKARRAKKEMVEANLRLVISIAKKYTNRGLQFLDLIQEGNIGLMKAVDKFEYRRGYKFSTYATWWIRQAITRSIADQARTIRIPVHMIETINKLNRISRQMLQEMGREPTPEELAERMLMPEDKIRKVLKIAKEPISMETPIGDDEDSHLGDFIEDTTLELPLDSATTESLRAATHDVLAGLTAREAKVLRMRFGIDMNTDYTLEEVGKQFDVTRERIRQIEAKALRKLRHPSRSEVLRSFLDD

[5] = molecular target: Truncated sigma^70 (C-terminal 99 amino acids of E. coli sigma^70), (His)5-tagged (Escherichia coli) (UniProt P00579); test: ELISA; His-tagged truncated sigma^70 on nickel plate, GST-AsiA detected with rabbit anti-GST and anti-rabbit IgG-HRP, OD 450 nm; reference without competitor
[6] = GST-AsiA 500 ng/ml + competitor at 30 µg/ml

T1 sequence (P00579 515-613): as the sequence (P00579 515-613) above
Sequence of GST-AsiA fusion protein (glutathione-S-transferase fused to the N-terminus of the bacteriophage T4 a (P08515 whole entry, the tested form may be a part): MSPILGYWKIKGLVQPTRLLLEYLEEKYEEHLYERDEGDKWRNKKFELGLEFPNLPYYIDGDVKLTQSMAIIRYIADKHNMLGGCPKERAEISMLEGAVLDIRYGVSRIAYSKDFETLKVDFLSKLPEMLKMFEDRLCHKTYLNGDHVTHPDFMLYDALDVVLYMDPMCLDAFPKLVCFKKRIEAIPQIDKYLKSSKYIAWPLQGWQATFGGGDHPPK

C/C=C/C/C=C(\C)C(O)CC/C(C)=C/C=C(\C)C(=O)c1c(O)cc([C@H](C)CC/C=C/NC(=O)OC)oc1=O (some centres unmarked) [corallopyronin]
% Binding to truncated sigma^70 [1, 6]: 69%

C/C(=C\Cc1ccccc1)CCC(=O)C[C@H]1C[C@H](O)C/C(C)=C/C/C=C/C/C(CC(=O)O)=C\C(=O)O1 [ripostatin]
% Binding to truncated sigma^70 ([1]; GST-AsiA 500 ng/ml + competitor at 1 µg/ml): 100% | % Binding to truncated sigma^70 ([1]; GST-AsiA 500 ng/ml + competitor at 10 µg/ml): 55% | % Binding to truncated sigma^70 ([1]; GST-AsiA 500 ng/ml + competitor at 100 µg/ml): 1.5%

AsiA protein (anti-sigma^70 factor of bacteriophage T4, asiA gene product), released from GST-AsiA by Factor Xa
% Binding to truncated sigma^70 [2]: 12% | [^3H]UTP (nmol) incorporated: E. coli RNA polymerase + 0.1 µg AsiA + 4 µg S. typhimurium sigma^70 (reactivation) [3]: 3 nmol | [^3H]UTP (nmol) incorporated: E. coli RNA polymerase + 0.1 µg AsiA + 4 µg S. typhimurium sigma^70 preincubated with 0.1 µg AsiA [3]: 0.98 nmol | [^3H]UTP (nmol) incorporated: E. coli RNA polymerase + 0.1 µg AsiA (control without AsiA 2.1), E. coli sigma^70 series [4]: 0.57 nmol | [^3H]UTP (nmol) incorporated: E. coli RNA polymerase + 0.1 µg AsiA (control without AsiA 2.3), S. typhimurium sigma^70 series before sigma^70 is added [4]: 0.34 nmol | [^3H]UTP (nmol) incorporated: E. coli RNA polymerase + 0.1 µg AsiA + 4 µg E. coli sigma^70 (reactivation) [4]: 2.3 nmol | [^3H]UTP (nmol) incorporated: E. coli RNA polymerase + 0.1 µg AsiA + 4 µg E. coli sigma^70 preincubated with 0.1 µg AsiA [4]: 0.68 nmol | inhibition of E. coli RNA polymerase activity by 0.07 µg AsiA, T4 DNA template [4]: > 80%

GST-AsiA fusion protein (glutathione-S-transferase fused to the N-terminus of the bacteriophage T4 a (from UniProt P08515 1-218)
% Binding to truncated sigma^70 [5]: 100%

myxopyronin
% Binding to truncated sigma^70 [1, 6]: 56%
